Assay results from patent publication US20150297694A1, “CANCER DIAGNOSTIC AND THERAPEUTIC METHOD TARGETING MOLECULES EXPRESSED IN CANCER STEM CELLS” (NIIGATA UNIVERSITY, priority 2012, published 2015).

Key:
[1] = tested on: CD3-positive T cells from peripheral blood; assay: Detection of DDX3X-responding IFN-γ-producing T cells in peripheral blood (co-culture with DDX3X-pulsed dendritic cells, ELISA); format: cell-based, human; set-up: key to DDX3X-specific T cell: “Yes” means detection of DDX3X-specific T cells in blood; “No” means no detection of DDX3X-specific T cells in blood; conditions: for DDX3X-specific T cell: DC pulsed with DDX3X 3.3 μg/ml, co-culture 24 hours, IFN-γ
Description: Peripheral blood (15 ml) was collected after informed consent. A mononulclear cell fraction was collected by density-gradient centrifugation using Lymphoprep(trade name) (Cosmo Bio), and CD14^+ cells were isolated with CD14 microbeads and autoMACS. The CD14^+ cells were cultured with rhGM-CSF (1 ng/ml, a gift from Kirin) and rhIL-4 (10 ng/ml, R&D systems), and differentiated into dendritic cells by day 5. The dendritic cells were cultured overnight in medium containing synthesized DDX3X protein (3.3 μg/ml) or the same concentration of OVA, and CD11c-positive cells purified with CD11c microbeads and autoMACS were used as antigen-presenting cells. In order to remove naive T cells and regulatory T cells from the CD14 fraction cells, CD62L^high cells were removed by using anti-CD62L antibody (1H3)-conjugated Dynabeads. The CD62L^low CD14^− cells were cultured for 48 hours on a BD BioCoat(trade name) T cell activation plate (Becton Dickinson), and cultured for 4 days in medium containing 20 U/ml of rhIL-2 (a gift from Shionogi). FACS confirmed that 95% or more of the cells were CD3-positive T cells, and the CD3-positive T cells were used as responding cells. The responding cells (1×10^5) and antigen-presenting cells (1×10^4) were co-cultured for 24 hours in a 200-μl medium in a round-bottom 96-well plate, and the IFN-γ concentration was measured by ELISA using the supernatant collected after co-culture. Unpulsed dendritic cells, DDX3X-pulsed dendritic cells, and OVA-pulsed dendritic cells were used as the antigen-presenting cells. In Table 3, “Yes” means that IFN-γ production from T cells was confirmed with significant difference only in a co-culture with the DDX3X-pulsed dendritic cells. In the table, “% Treg” and “% Teff” represent the proportions of the regulatory T cells and the effector T cells, respectively, with respect to the total number of CD4^+ T cells as determined by the FACS analysis of the mononulclear cell fraction immediately after isolation from the peripheral blood. CD62L^high CD25^+CD4^+ T cells and CD62L^low CD4^+ T cells were used as regulatory T cells (Treg) and effector T cells (Teff), respectively, in the FACS analysis, as reported in Koyama K, Kagamu H, et al. Reciprocal CD4^+ T-cell balance of effector CD62L^low CD4^+ and CD62L^high CD25^+ CD4^+ regulatory T cells in small cell lung cancer reflects disease stage. Clin Cancer Res. 2008; 14: 6770-9. Detection of DDX3X-responding T cells was not possible in any of the healthy individuals (HV), small cell lung cancer patients with distal metastasis (SCLC-ED), and cured small cell lung cancer patients. However, the experiment found the presence of DDX3X-responding, specific IFN-γ-producing T cells in 5 of 12 small cell lung cancer (SCLC-LD) patients with no distal metastasis.

[2] = tested on: CD62Llow CD4-positive or CD8-positive T cells; assay: Cytokine ELISA (IFN-γ, IL-17) of CD62Llow lymph node T cells stimulated with antigen-loaded dendritic cells; format: cell-based, mice
Description: T cells were stimulated with immobilized anti-CD3 monoclonal antibodies or antigen-pulsed BM-DCs in CM. Supernatants were harvested and assayed for IFN-γ, IL-4, and IL-17 content by a quantitative “sandwich” enzyme immunoassay using a murine IFN-γ, IL-4, and IL-17 ELISA kit (Genzyme), according to the manufacturer's protocol.
The inventors investigated whether T cells primed with synthesized DDX3X antigen could recognize CD133-positive melanoma cells.
The CD62L^low CD4-positive or CD8-positive T cells (1×10^5 cells) isolated from the lymph nodes were stimulated with 1×10^4 dendritic cells in 200 μl of complete medium (CM) for 48 hours in a 96-well plate. The dendritic cells used for stimulation were stimulated overnight with the same number of irradiated CD133-positive tumor cells or CD133-negative tumor cells (5,000 cGy), or synthesized DDX3X (5 μg/ml). The dendritic cells were purified with CD11c microbeads prior to co-culture.

[3] = T cells from lymph nodes draining DC pulsed with synthesized DDX3X, stimulated 48 hours with DC loaded with CD133-positive or CD133-negative tumor cells

B1: DEAD/H (Asp-Glu-Ala-Asp/His) box polypeptide 3, X-linked (protein, listed as Homo sapiens)
chain: MSHVAVENALGLDQQFAGLDLNSSDNQSGGSTASKGRYIPPHLRNREATKGFYDKDSSGWSSSKDKDAYSSFGSRSDSRGKSSFFSDRGSGSRGRFDDRGRSDYDGIGSRGDRSGFGKFERGGNSRWCDKSDEDDWSKPLPPSERLEQELFSGGNTGINFEKYDDIPVEATGNNCPPHIESFSDVEMGEIIMGNIELTRYTRPTPVQKHAIPIIKEKRDLMACAQTGSGKTAAFLLPILSQIYSDGPGEALRAMKENGRYGRRKQYPISLVLAPTRELAVQIYEEARKFSYRSRVRPCVVYGGADIGQQIRDLERGCHLLVATPGRLVDMMERGKIGLDFCKYLVLDEADRMLDMGFEPQIRRIVEQDTMPPKGVRHTMMFSATFPKEIQMLARDFLDEYIFLAVGRVGSTSENITQKVVWVEESDKRSFLLDLLNATGKDSLTLVFVETKKGADSLEDFLYHEGYACTSIHGDRSQRDREEALHQFRSGKSPILVATAVAARGLDISNVKHVINFDLPSDIEEYVHRIGRTGRVGNLGLATSFFNERNINITKDLLDLLVEAKQEVPSWLENMAYEHHYKGSSRGRSKSSRFSGGFGARDYRQSSGASSSSFSSSRASSSRSGGGGHGSSRGFGGGGYGGFYNSDGYGGNYNSQGVDWWGN
- DDX3X-specific T cell ([1]; Cured SCLC subjects): No
- DDX3X-specific T cell ([1]; HV (healthy individuals)): No
- DDX3X-specific T cell ([1]; SCLC-ED subjects): No
- DDX3X-specific T cell ([1]; SCLC-LD subjects): Yes and No
- detection of DDX3X-responding T cells ([1]; healthy individuals (HV), SCLC-ED and cured small cell lung cancer patients): not possible
- patients with DDX3X-responding, specific IFN-γ-producing T cells ([1]; small cell lung cancer (SCLC-LD) patients with no distal metastasis): 5 of 12
- IFN-γ and IL-17 secretion by DDX3X-specific CD4-positive T cells [2, 3]: secreted IFN-γ and IL-17 in a melanoma CSC-specific manner
- response of DDX3X-specific CD8-positive T cells [2, 3]: responded to both CD133-negative and CD133-positive melanoma cells
- cytokine production by melanoma CSC-specific CD4-positive T cells ([2]; T cells primed with vaccinated CD133-positive melanoma cells, stimulated with DC pulsed with synthesized DDX3X (5 μg/ml)): produced cytokines in a DDX3X-specific manner
- cytokine production upon DDX3X stimulation compared with stimulation with the melanoma CSC itself ([2]; melanoma CSC-specific CD4-positive T cells): produced even more cytokines
